Results published in publication PMC4333214.
Several values for one entry are separate records, joined by “and”; a condition that tells them apart may be missing. Equal entries are not always repeated.

Biological target: FLβ.AP2 (AP2 comprising full-length β2, μ2 and σ2 subunits and the α-trunk domain) (UniProt P63010)
Test: co-sedimentation

Chain of clathrin (Q00610 whole entry, looked up): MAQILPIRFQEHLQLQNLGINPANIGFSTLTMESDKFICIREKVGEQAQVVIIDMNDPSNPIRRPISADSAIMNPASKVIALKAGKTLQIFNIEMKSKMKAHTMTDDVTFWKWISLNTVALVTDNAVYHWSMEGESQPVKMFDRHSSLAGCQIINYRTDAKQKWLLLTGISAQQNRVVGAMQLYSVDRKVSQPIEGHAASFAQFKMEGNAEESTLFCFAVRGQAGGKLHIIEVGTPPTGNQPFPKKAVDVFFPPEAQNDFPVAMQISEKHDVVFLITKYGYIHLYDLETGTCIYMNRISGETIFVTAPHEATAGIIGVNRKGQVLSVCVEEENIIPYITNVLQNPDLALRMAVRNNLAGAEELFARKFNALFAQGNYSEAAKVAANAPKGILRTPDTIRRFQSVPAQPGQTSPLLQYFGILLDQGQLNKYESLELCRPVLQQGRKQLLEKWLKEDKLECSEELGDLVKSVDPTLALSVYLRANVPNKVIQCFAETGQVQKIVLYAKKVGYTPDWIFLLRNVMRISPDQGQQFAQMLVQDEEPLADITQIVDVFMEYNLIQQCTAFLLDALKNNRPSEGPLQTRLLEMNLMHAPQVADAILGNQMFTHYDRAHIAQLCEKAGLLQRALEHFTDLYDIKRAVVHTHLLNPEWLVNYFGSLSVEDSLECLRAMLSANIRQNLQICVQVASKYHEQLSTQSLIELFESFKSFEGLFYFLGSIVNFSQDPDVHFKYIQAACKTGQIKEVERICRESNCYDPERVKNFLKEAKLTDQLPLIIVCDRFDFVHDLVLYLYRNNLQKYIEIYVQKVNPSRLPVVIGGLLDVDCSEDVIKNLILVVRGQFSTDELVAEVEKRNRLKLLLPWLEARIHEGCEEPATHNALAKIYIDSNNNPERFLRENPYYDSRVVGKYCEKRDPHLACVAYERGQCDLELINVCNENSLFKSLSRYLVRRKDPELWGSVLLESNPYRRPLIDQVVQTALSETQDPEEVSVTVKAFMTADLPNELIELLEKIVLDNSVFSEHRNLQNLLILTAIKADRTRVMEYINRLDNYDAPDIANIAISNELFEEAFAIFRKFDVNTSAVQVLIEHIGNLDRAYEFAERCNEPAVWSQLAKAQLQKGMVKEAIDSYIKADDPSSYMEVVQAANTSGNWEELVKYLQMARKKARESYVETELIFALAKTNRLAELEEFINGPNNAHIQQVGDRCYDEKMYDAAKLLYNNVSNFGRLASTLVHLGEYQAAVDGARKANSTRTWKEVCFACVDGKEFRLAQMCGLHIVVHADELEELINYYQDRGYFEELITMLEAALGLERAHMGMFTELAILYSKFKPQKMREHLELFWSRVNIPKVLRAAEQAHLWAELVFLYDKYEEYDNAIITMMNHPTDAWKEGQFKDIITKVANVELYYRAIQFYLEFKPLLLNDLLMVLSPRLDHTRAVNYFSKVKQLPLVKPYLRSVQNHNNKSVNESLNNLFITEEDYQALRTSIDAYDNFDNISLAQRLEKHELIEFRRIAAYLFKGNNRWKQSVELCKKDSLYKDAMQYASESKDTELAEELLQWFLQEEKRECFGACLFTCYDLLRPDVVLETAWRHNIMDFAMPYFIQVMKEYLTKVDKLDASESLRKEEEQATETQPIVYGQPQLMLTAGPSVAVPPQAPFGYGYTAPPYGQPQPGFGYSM

clathrin (from UniProt Q00610 1-1675) (complex)
ratio of clathrin to AP2 in the liposome pellets: 26.5% and 5.2%
